The values that follow are results of earlier work, collected in paper PMC10162908.

The target of the data set is EED (Homo sapiens) (UniProt O75530).
Sequence of UniProt O75530 (O75530 2-441): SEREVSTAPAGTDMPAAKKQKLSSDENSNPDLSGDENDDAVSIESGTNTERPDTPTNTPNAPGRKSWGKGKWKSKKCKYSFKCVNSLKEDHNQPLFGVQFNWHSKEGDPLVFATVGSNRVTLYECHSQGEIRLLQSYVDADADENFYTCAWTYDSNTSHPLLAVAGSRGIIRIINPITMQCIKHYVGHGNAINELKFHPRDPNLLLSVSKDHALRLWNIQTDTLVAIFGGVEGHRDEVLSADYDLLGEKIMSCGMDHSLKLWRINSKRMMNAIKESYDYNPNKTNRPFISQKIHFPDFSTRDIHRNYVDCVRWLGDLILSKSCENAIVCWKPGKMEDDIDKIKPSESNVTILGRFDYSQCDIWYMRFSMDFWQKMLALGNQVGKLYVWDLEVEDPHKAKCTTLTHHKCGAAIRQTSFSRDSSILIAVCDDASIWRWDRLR

Usually Kd stands for the constant that tells how readily two partners part at equilibrium. For the substance “Jarid2 K116me3 peptide 114-118 (from UniProt Q92833)”, the Kd was 8.82 µM.
